From patent US20190328898A1 (AGENSYS, published 2019)

Key:
161P2F10B protein [1] = biological target: T1, 161P2F10B protein (human, UniProt O14638 1-875); assay: cell-based or functional assay
T1 sequence: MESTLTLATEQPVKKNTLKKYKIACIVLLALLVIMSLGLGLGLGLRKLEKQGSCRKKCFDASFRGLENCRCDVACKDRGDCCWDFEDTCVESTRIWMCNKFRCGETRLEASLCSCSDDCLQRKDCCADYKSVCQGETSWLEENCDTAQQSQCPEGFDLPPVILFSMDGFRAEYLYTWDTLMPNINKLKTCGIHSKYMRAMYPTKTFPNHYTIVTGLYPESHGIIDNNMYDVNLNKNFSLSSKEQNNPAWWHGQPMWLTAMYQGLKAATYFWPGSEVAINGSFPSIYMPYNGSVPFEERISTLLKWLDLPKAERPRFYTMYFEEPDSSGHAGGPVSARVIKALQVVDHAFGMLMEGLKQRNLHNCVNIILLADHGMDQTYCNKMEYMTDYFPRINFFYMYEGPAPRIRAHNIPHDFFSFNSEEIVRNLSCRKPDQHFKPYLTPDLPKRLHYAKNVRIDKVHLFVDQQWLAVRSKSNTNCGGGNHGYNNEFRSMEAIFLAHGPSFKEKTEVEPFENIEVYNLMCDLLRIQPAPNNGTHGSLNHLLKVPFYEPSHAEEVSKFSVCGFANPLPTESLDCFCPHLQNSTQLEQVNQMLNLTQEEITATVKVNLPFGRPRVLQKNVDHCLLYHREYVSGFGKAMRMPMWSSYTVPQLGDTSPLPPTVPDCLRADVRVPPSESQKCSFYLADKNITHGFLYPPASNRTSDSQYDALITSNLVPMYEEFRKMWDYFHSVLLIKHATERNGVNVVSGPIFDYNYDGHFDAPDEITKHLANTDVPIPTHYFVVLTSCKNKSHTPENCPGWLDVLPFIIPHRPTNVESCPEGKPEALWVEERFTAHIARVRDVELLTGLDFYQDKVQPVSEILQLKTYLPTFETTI

161P2F10B protein [2] = biological target: T1, 161P2F10B protein; assay: FACS saturation binding on Ku812 cells, one site fit of MFI
Protocol: FIG. 6. Cell Binding and Affinity of H16-7.8 and H16-7.8mcMMAF. H16-7.8 and H16-7.8mcMMAF were tested for the binding affinity to 161P2F10B endogenously expressed on Ku812 cells. Briefly, eleven (11) dilutions of H16-7.8 or H16-7.8mcMMAF were incubated with Ku812 cells (50,000 cells per well) overnight at 4° C. at a final concentration of 160 nM to 0.0001 nM. At the end of the incubation, cells were washed and incubated with anti-hIgG-PE detection antibody for 45 min at 4° C. After washing the unbound detection antibodies, the cells were analyzed by FACS. Mean Florescence Intensity (MFI) values are obtained (See, Table IV). MFI values were entered into Graphpad Prisim software and analyzed using the one site binding (hyperbola) equation of Y=Bmax*X/(Kd+X) to generate H16-7.8 or H16-7.8mcMMAF saturation curves shown in FIG. 6. […]
H16-7.8 and H16-7.8mcMMAF were tested for the binding affinity to 161P2F10B endogenously expressed on Ku812 cells. […] After washing the unbound detection antibodies, the cells are analyzed by FACS. […] MFI values were entered into Graphpad Prisim software and analyzed using the one site binding (hyperbola) equation of Y=Bmax*X/(Kd+X) to generate H16-7.8 or H16-7.8mcMMAF saturation curves shown in FIG. 6. […]

161P2F10B protein [3] = biological target: T1, 161P2F10B protein; assay: FACS saturation binding on KU812 cells, twelve dilutions, one site fit, n=4
Protocol: H16-7.8 and H16-7.8mcMMAF were tested for their binding affinity to 161P2F10B expressed on KU812 cells (human chronic myelogenous leukemia cells, ATCC). Briefly, twelve (12) dilutions of H16-7.8 or H16-7.8mcMMAF were incubated with KU812 cells (50,000 cells per well) overnight at 4° C. at a final concentration of 160 nM to 0.004 nM. At the end of the incubation, cells are washed and incubated with anti-hIgG-PE detection antibody for 45 min at 4° C. After washing the unbound detection antibodies, the cells are analyzed by FACS.
MFI values were entered into Graphpad Prisim software and analyzed using the one site binding (hyperbola) equation of Y=Bmax*X/(Kd+X) to generate H16-7.8 and H16-7.8mcMMAF saturation curves. Bmax is the MFI value at maximal binding of H16-7.8 or H16-7.8mcMMAF to KU812; Kd is H16-7.8 or H16-7.8mcMMAF binding affinity which are the concentration of H16-7.8 or H16-7.8mcMMAF required to reach halfmaximal binding. […] (n=4).

Row | IC 50, inhibition of proliferation of KU812 cells (Alamar blue, 6 days), Lot (1) (161P2F10B protein [1]) [nM] | IC 50, inhibition of proliferation of KU812 cells (Alamar blue, 6 days), Lot (2) (161P2F10B protein [1]) [nM] | Kd (161P2F10B protein [2]) [nM] | Kd (161P2F10B protein [3]) [nM] | Binder | Specific cytotoxicity activity on KU812 cells, IC50 (Alamar Blue, 6 days) (161P2F10B protein [1]) [nM]
1 | 0.2 | 0.1 | 0.19 | 0.25 | H16-7.8mcMMAF (antibody, V domains shown, mcMMAF on the cysteine of peptide S208FNRGEC214 in part of the chains (0 or 1 drug per L chain); mcMMAF (maleimidocaproyl-monomethyl auristatin F) on cysteine thiols after partial reduction; predominantly 2 drugs on the hinge peptide C225-K250; 0 to 5 drugs per H chain observed; overall DAR 4.0, a mixture of drug loadings, predominant species 4 drugs; also called H16-7.8mcMMAF ADC; ADC H16-7.8mcMMAF) VH: QVQLQESGPGLVKPSQTLSLTCTVSGGSISSGGYYWSWIRQHPGKGLEWIGIIYYSGSTYYNPSLKSRVTISVDTSKNQFSLKLNSVTAADTAVFYCARVAIVTTIPGGMDVWGQGTTVTVSS VL: EIVLTQSPDFQSVTPKEKVTITCRASQSIGISLHWYQQKPDQSPKLLIKYASQSFSGVPSRFSGSGSGTDFTLTINSLEAEDAATYYCHQSRSFPWTFGQGTKVEIKR | 0.15
2 | – | – | 0.06 | 0.08 | 161P2F10B MAb H16-7.8 (antibody, V domains shown, Fully human IgG2 kappa from XenoMouse; also called native H16-7.8; recombinant H16-7.8) VH: QVQLQESGPGLVKPSQTLSLTCTVSGGSISSGGYYWSWIRQHPGKGLEWIGIIYYSGSTYYNPSLKSRVTISVDTSKNQFSLKLNSVTAADTAVFYCARVAIVTTIPGGMDVWGQGTTVTVSS VL: EIVLTQSPDFQSVTPKEKVTITCRASQSIGISLHWYQQKPDQSPKLLIKYASQSFSGVPSRFSGSGSGTDFTLTINSLEAEDAATYYCHQSRSFPWTFGQGTKVEIKR | –
